Measured values taken from patent publication US20170051261.

Target: human acyl ghrelin, Q9UBU3
Sequence (Q9UBU3 whole entry, looked up): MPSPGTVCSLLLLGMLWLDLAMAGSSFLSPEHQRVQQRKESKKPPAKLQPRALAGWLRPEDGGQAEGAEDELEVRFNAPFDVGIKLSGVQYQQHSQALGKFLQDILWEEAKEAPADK

Row | Protein | hydrolysis (deacylation) of acyl ghrelin in vitro; residual acyl ghrelin and desacyl ghrelin by immunoassay | time course of acyl ghrelin hydrolysis in vitro | ghrelin hydrolyzing activity in vitro (human ghrelin immunoassay kit: decrease in acyl ghrelin, increase in deacyl ghrelin)
1 | purified human butyrylcholinesterase (wild-type human BChE) (protein) EDDIIIATKNGKVRGMNLTVFGGTVTAFLGIPYAQPPLGRLRFKKPQSLTKWSDIWNATKYANSCCQNIDQSFPGFHGSEMWNPNTDLSEDCLYLNVWIPAPKPKNATVLIWIYGGGFQTGTSSLHVYDGKFLARVERVIVVSMNYRVGALGFLALPGNPEAPGNMGLFDQQLALQWVQKNIAAFGGNPKSVTLFGESAGAASVSLHLLSPGSHSLFTRAILQSGSFNAPWAVTSLYEARNRTLNLAKLTGCSRENETEIIKCLRNKDPQEILLNEAFVVPYGTPLSVNFGPTVDGDFLTDMPDILLELGQFKKTQILVGVNKDEGTAFLVYGAPGFSKDNNSIITRKEFQEGLKIFFPGVSEFGKESILFHYTDWVDDQRPENYREALGDVVGDYNFICPALEFTKKFSEWGNNAFFYYFEHRSSKLPWPEWMGVMHGYEIEFVFGLPLERRDNYTKAEEILSRSIVKRWANFAKYGNPNETQNNSTSWPVFKSTEQKYLTLNTESTRIMTKLRAQQCRFWTSFFPKVLEMTGNIDEAEWEWKAGFHRWNNYMMDWKNQFNDYTSKKESCVGL | Incubation of a sample containing acyl ghrelin with increasing amounts of human BChE resulted in a decrease in the amount of acyl ghrelin and an increase in the amount of the breakdown product, desacyl ghrelin | A linear hydrolysis rate was observed | 
2 | A199S/F227A/S287G/A328W/Y332G mutant human BChE (protein) EDDIIIATKNGKVRGMNLTVFGGTVTAFLGIPYAQPPLGRLRFKKPQSLTKWSDIWNATKYANSCCQNIDQSFPGFHGSEMWNPNTDLSEDCLYLNVWIPAPKPKNATVLIWIYGGGFQTGTSSLHVYDGKFLARVERVIVVSMNYRVGALGFLALPGNPEAPGNMGLFDQQLALQWVQKNIAAFGGNPKSVTLFGESSGAASVSLHLLSPGSHSLFTRAILQSGSANAPWAVTSLYEARNRTLNLAKLTGCSRENETEIIKCLRNKDPQEILLNEAFVVPYGTPLGVNFGPTVDGDFLTDMPDILLELGQFKKTQILVGVNKDEGTWFLVGGAPGFSKDNNSIITRKEFQEGLKIFFPGVSEFGKESILFHYTDWVDDQRPENYREALGDVVGDYNFICPALEFTKKFSEWGNNAFFYYFEHRSSKLPWPEWMGVMHGYEIEFVFGLPLERRDNYTKAEEILSRSIVKRWANFAKYGNPNETQNNSTSWPVFKSTEQKYLTLNTESTRIMTKLRAQQCRFWTSFFPKVLEMTGNIDEAEWEWKAGFHRWNNYMMDWKNQFNDYTSKKESCVGL |  |  | exhibited modest activity, comparable to that of wild type human BChE
3 | A199S/S227A/S287G/A328W/Y332G mutant mouse BChE (protein) EEDFIITTKTGRVRGLSMPVLGGTVTAFLGIPYAQPPLGSLRFKKPQPLNKWPDIHNATQYANSCYQNIDQAFPGFQGSEMWNPNTNLSEDCLYLNVWIPVPKPKNATVMVWIYGGGFQTGTSSLPVYDGKFLARVERVIVVSMNYRVGALGFLAFPGNPDAPGNMGLFDQQLALQWVQRNIAAFGGNPKSITIFGESSGAASVSLHLLCPQSYPLFTRAILESGSANAPWAVKHPEEARNRTLTLAKFTGCSKENEMEMIKCLRSKDPQEILRNERFVLPSDSILGINFGPTVDGDFLTDMPHTLLQLGKVKKAQILVGVNKDEGTWFLVGGAPGFSKDNDSLITRKEFQEGLNMYFPGVSRLGKEAVLFYYVDWLGEQSPEVYRDALDDVIGDYNIICPALEFTKKFAELENNAFFYFFEHRSSKLPWPEWMGVMHGYEIEFVFGLPLGRRVNYTRAEEIFSRSIMKTWANFAKYGHPNGTQGNSTMWPVFTSTEQKYLTLNTEKSKIYSKLRAPQCQFWRLFFPKVLEMTGDIDETEQEWKAGFHRWSNYMMDWQNQFNDYTSKKESCTAL |  |  | exhibited enhanced activity (e.g., at least 20-fold more activity), comparable to that of wild type mouse BChE
